Measured values from US20240400718A1.

Tests used:
[1] = target: #231: CAR with VL-L1-VH scFv, Human 3rd-generation; assay: subclone supernatant on HEK293T cells transiently expressing the scFv; % positive cells
[2] = target: #231: CAR with VL-L1-VH scFv, Human 3rd-generation; assay: flow cytometry on CAR-T cells; PE-labeled secondary antibody; PE-positive cells / total cells
[3] = target: #264: VH-L1-VL CAR-T; assay: as above
[4] = target: #371: VL-L2-VH CAR-T; assay: as above
[5] = target: #628: VH-L2-VL CAR-T; assay: as above
[6] = target: #651: VH-L2-VL CAR-T; assay: as above
#651: VH-L2-VL CAR-T, sequence (main, as listed by the source): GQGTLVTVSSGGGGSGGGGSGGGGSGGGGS

[7] = target: S#017: CAR with VH-L2-VL scFv, Human 3rd-generation_hIL7_hCCL19_HSVtk; assay: as above
[8] = target: S#027: VH-L1-VL CAR-T; assay: as above
[9] = target: S#031: CAR with VH-L1-VL scFv, Human 3rd-generation_hIL7_hCCL19_HSVtk; assay: as above
[10] = target: S#050: VH-L1-VL CAR-T; assay: as above
[11] = target: S#066: VL-L2-VH CAR-T; assay: as above
S#066: VL-L2-VH CAR-T, sequence (main, as listed by the source): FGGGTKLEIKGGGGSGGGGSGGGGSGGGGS

[12] = target: S#067: CAR with VL-L1-VH scFv, Human 2nd-generation (4-1BB)_hIL7_hCCL19_HSVtk; assay: as above
[13] = target: S#074: VL-L2-VH CAR-T; assay: as above
[14] = target: S#075: CAR with VL-L1-VH scFv, Human 2nd-generation (4-1BB)_hIL7_hCCL19_HSVtk; assay: as above
[15] = target: S#076: VH-L2-VL CAR-T; assay: as above
[16] = target: S#084: VL-L2-VH CAR-T; assay: as above
[17] = target: S#085: VL-L1-VH CAR-T; assay: as above
[18] = target: S#097: VL-L2-VH CAR-T; assay: as above
S#097: VL-L2-VH CAR-T, sequence (main, as listed by the source): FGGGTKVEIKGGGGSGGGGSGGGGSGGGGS

[19] = target: S#104: VL-L1-VH CAR-T; assay: as above

#231: CAR with VL-L1-VH scFv, Human 3rd-generation, sequence (main, as listed by the source): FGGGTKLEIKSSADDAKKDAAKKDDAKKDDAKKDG

| Binder | Positive (%) [1] [%] | Reactivity (%) [2] [%] | Reactivity (%) [3] [%] | Reactivity (%) [4] [%] | Reactivity (%) [5] [%] | Reactivity (%) [6] [%] | Reactivity (%) [7] [%] | Reactivity (%) [8] [%] | Reactivity (%) [9] [%] | Reactivity (%) [10] [%] | Reactivity (%) [11] [%] | Reactivity (%) [12] [%] | Reactivity (%) [13] [%] | Reactivity (%) [14] [%] | Reactivity (%) [15] [%] | Reactivity (%) [16] [%] | Reactivity (%) [17] [%] | Reactivity (%) [18] [%] | Reactivity (%) [19] [%] |
| --- | --- | --- | --- | --- | --- | --- | --- | --- | --- | --- | --- | --- | --- | --- | --- | --- | --- | --- | --- |
| 3E7-C1 (antibody, V domains shown) VH: QVQMKESGPGLVQPSETLSLTCTVSGFSLTSYGVSWVRQPSGKGPEWMGRLWNDGDTAYNSALKSRLSISRDTSKNQVFLKMNSLQTDDTGTYYCTTMNGYKDYWGQGVMVTVSS VL: TSYELIQPPSASVTLGNTVSLTCVGDELPKRYAYWYQQKPDQSIVRVIYEDSKRPSGISDRFSGSSSGTTATLTIRDAQAEDEADYYCHSTYSDDKLRIFGGGTKLTVLG | 24.5 | 69.6 | 0 | 0 | 0 | 0.1 | 0 | 0 | 2.2 | 0.1 | 0.1 | 41 | 0.1 | 25.9 | 0.1 | 0 | 41.4 | 0 | 21.5 |
| 4B9-B11 (antibody, V domains shown) VH: QMQLKESGPGLVQPSETLSLTCTVSGFSLTSYSVSWVRQPSGKGPEWMGRMYYDGDTAYNSALKSRLSISRDTSKNQVFLKMNSLQTDDTGTYYCTRSIGAEDYWGQGVMVTVSS VL: TSYELIQPPSASVTLGNTVSLTCVGDELPKRYAYWYQQKPDQSIVRVIYEDSKRPSGISDRFSGSSSGTTATLTIRDAQNEDEADYYCHSTYSDDKLRIFGGGTKLTVLG | 60 | 74.6 | 0 | 0.1 | 0.2 | 0.2 | 0 | 1 | 9.7 | 1.1 | 0.1 | 41.5 | 1.4 | 35.7 | 0.2 | 0.1 | 49.6 | 0.1 | 29.1 |
| 2D12-B12 (antibody, V domains shown) VH: EVKLVESGGGLVQPGRSLKLSCAASGFNFNDYWMGWVRQAPGKGLEWIGEIKKDSSIINYIPSLKDKFTISRDNAQNTLYLQMSKLGSEDTAIYYCARGVEYYGYHYWGQGTLVTVSS VL: DIVMTQSPSSLAVSAGETVTINCKSSQSLLYSGNQKNYLAWYQQKPGQSPKLLIYWASTRHSGVPARFIGSGSGSDFTLTISSVQAEDLAIYCCQQYYDIPYTFGAGTKLELK |  | 67.4 | 11.1 | 0.2 | 0.2 | 0.4 | 0 | 28.4 | 64.6 | 14.5 | 0.9 | 34.9 | 0.8 | 15 | 0.2 | 0.3 | 0.8 | 0.3 | 13.4 |
| 3A4-A10-7 (antibody, V domains shown) VH: QVQLQQSGAALVKPGASVKMSCKASGYTFTDCWVSWVKQSHGKSLEWIGEIHPNSGTTNFNEKFKGKATLTVDKSTSTAYMELSRLTSEDSAIYYCTRAYGGYPFDYWGQGVMVTVSS VL: ADLVLTQPKSVSTSLESTVKLSCKLNSGNIGRYYMHWYQQHEGRSPTNMIYRDDKRPDGVPDRFSGSIDSSSNSAFLTINNVQTEDEAIYFCHSYDSSINIFGGGTKLTVLG |  | 23.9 | 36.7 | 0.2 | 0.1 | 0.2 | 0 | 45.7 | 45.3 | 18.5 | 0.2 | 22.3 | 0.2 | 12.3 | 0.2 | 0.1 | 2.2 | 0.1 | 5.2 |
